Article PMC4239663, “Structural basis for extracellular cis and trans RPTPσ signal competition in synaptogenesis” (Nature Communications, 2014)
Changes are numbered by the printed parent chain. Read-outs that look alike come from different tables or passages of the source. One block for each binder: values may come before it.

Legend:
[1] = molecular target: T1, chicken RPTPσ Ig1–3, C-terminal Avitag, immobilized (chicken, UniProt F1NWE3 29-316, biotin on the Avitag (enzymatic)); assay: SPR; equilibrium; biotinylated chicken RPTPσ Ig1–3 (wild type or mutants) immobilized on streptavidin-coated CM5 chips, chicken TrkC LRRIg1 as analyte; 10 mM HEPES pH 7.5, 150 mM NaCl, 0.01% Tween 20, 25 °C; settings: both partners purified
T1 construct: chicken RPTPσ Ig1–3, amino acids 29–316 of NCBI NM_205407.1; not shown: Avitag (BirA recognition site), C-terminal, kept
T1 sequence (looked up): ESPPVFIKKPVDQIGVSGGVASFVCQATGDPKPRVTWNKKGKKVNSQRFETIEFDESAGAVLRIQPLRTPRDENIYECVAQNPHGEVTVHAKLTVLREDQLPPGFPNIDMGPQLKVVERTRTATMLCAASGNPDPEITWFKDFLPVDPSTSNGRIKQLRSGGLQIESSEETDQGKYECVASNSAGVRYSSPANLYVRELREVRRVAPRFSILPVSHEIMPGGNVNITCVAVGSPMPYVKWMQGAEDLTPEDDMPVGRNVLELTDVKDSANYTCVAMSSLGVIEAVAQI

[2] = molecular target: T2, chicken RPTPσ N73S+S74N (RPTPδ-like) Ig1–3, C-terminal Avitag (chicken, UniProt F1NWE3 29-316, N73S | S74N, biotin on the Avitag (enzymatic)); assay: as above; settings: both partners purified
T2 construct: chicken RPTPσ Ig1–3, amino acids 29–316 of NCBI NM_205407.1; not shown: Avitag (BirA recognition site), C-terminal, kept
T2 sequence (looked up): T1 sequence (looked up) with N45S, S46N

[3] = molecular target: T3, mouse TrkC LRRIg1 (soluble) (mouse, UniProt Q6VNS1 32-302); assay: SPR
T3 chain: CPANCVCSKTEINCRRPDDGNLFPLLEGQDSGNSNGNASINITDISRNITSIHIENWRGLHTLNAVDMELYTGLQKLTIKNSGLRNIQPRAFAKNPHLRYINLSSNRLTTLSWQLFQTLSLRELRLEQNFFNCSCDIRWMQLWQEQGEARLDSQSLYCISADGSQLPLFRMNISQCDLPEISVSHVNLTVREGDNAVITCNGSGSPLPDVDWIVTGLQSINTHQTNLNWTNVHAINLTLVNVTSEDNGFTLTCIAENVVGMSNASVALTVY

[4] = molecular target: T3, mouse TrkC LRRIg1 (soluble); assay: SPR
[5] = molecular target: T4, mouse TrkC LRRIg1, C-terminal Avitag, immobilized (mouse, UniProt Q6VNS1 32-302, biotin on the Avitag (enzymatic)); assay: SPR; equilibrium; biotinylated mouse TrkC LRRIg1 (wild type or D240A+D242A) immobilized on streptavidin-coated CM5 chips, human RPTP proteins as analytes; 10 mM HEPES pH 7.5, 150 mM NaCl, 0.01% Tween 20, 25 °C; in Fig. 6a also with increasing HS or heparin-dp10; settings: both partners purified
T4 construct: mouse TrkC, leucine-rich repeat domain and first Ig domain, amino acids 32–302 of NCBI BC139764.1; not shown: Avitag (BirA recognition site), C-terminal, kept

[6] = molecular target: T5, TrkC (species and construct not stated; Supplementary Figs 5a,b and 8i) ( (mouse or chicken constructs …, UniProt Q6VNS1 32-825); assay: SPR; equilibrium; RPTPσ and TrkC truncations (Supplementary Fig. 5a,b); species and who was immobilized not given; settings: both partners purified
T5 construct: TrkC ectodomain construct; they may differ

[7] = molecular target: T6, chicken TrkC LRRIg1cryst (crystallization protein) (chicken, UniProt Q91044 32-302, lack residues 63–77 | N163Q | N232Q | N259Q | N267Q | N294Q); assay: crystal structure; 2.5 Å, space group P2; 10% PEG 20k, 20% PEG MME 550, 0.1 M bicine/Tris pH 8.5, 0.03 M sodium nitrate, disodium hydrogen phosphate and ammonium sulphate; 20.5 °C; settings: both partners purified
T6 construct: chicken TrkC LRRIg1, amino acids 32–302 of NCBI NM_205169.1, lacking residues 63–77; extra vector residues ETG (N-terminal) and GT (C-terminal) seen in the model; The methods name only the pHL-Avitag3 vector for this construct; also called cTrkC LRRIg1_(cryst)
T6 sequence (looked up): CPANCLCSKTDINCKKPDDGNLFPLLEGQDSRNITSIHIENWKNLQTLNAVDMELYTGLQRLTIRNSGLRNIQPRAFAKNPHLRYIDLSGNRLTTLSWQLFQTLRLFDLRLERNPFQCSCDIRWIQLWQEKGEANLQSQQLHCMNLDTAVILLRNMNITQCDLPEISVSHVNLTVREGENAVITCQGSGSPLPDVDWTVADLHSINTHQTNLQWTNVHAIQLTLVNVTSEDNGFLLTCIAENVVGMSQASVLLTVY

[8] = molecular target: T7, mouse TrkC LRRIg1, C-terminal Avitag, immobilized (mouse, UniProt Q6VNS1 32-302, biotin on the Avitag (enzymatic)); assay: SPR
T7 chain: T3 chain

mouse TrkC LRRIg2 = molecular target: T8, mouse TrkC LRRIg2 (Mus musculus); assay: SPR
T8 chain: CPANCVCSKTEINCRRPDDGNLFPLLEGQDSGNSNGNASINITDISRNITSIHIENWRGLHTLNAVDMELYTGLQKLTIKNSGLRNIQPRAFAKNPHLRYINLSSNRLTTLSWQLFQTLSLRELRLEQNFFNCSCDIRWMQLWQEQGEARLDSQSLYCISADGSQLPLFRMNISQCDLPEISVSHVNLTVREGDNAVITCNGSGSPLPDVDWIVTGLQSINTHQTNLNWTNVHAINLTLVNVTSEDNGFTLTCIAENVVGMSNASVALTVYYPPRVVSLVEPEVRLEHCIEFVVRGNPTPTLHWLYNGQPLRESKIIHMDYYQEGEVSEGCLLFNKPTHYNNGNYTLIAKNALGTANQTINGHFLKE

[9] = molecular target: T3, mouse TrkC LRRIg1 (soluble); assay: SPR
[10] = molecular target: T3, mouse TrkC LRRIg1 (soluble); assay: SEC-MALS; Superdex200 HR10/30 in 10 mM Tris, 50 mM NaCl, pH 7.5; refractive index and multi-angle light scattering detectors

Kd [6]: 2.4 µM
B4: RPTPσ Ig1–2 (species not stated; Supplementary Fig. 5a) (domain or fragment)
chain: EEPPRFIKEPKDQIGVSGGVASFVCQATGDPKPRVTWNKKGKKVNSQRFETIEFDESAGAVLRIQPLRTPRDENVYECVAQNSVGEITVHAKLTVLREDQLPSGFPNIDMGPQLKVVERTRTATMLCAASGNPDPEITWFKDFLPVDPSASNGRIKQLRSGALQIESSEETDQGKYECVATNSAGVRYSSPANLYVRV

stoichiometry N [7]: 1
B5: chicken RPTPσ Ig1–2 (as found in the 2.5 Å complex crystals) (domain or fragment)
chain: ESPPVFIKKPVDQIGVSGGVASFVCQATGDPKPRVTWNKKGKKVNSQRFETIEFDESAGAVLRIQPLRTPRDENIYECVAQNPHGEVTVHAKLTVLREDQLPPGFPNIDMGPQLKVVERTRTATMLCAASGNPDPEITWFKDFLPVDPSTSNGRIKQLRSGGLQIESSEETDQGKYECVASNSAGVRYSSPANLYVR
notes: chicken RPTPσ; the crystallization protein was Ig1–3 (amino acids 29–316 of NM_205407.1); the cleavage site in the Ig2–Ig3 linker is not determined; also called cRPTPσ Ig1-2; source: HEK-293S GnTI− cells as Ig1–3, purified; Ig3 absent from the crystals, proteolytic cleavage the most likely reason

Further lines, the binder ahead of its results:

B1: chicken TrkC LRRIg1 (analyte of Fig. 3c) (domain or fragment)
chain: CPANCLCSKTDINCKKPDDGNLFPLLEGQDSGSSNGNTSINITDISRNITSIHIENWKNLQTLNAVDMELYTGLQRLTIRNSGLRNIQPRAFAKNPHLRYIDLSGNRLTTLSWQLFQTLRLFDLRLERNPFQCSCDIRWIQLWQEKGEANLQSQQLHCMNLDTAVILLRNMNITQCDLPEISVSHVNLTVREGENAVITCQGSGSPLPDVDWTVADLHSINTHQTNLQWTNVHAIQLTLVNVTSEDNGFLLTCIAENVVGMSQASVLLTVY
Kd [1]: 3.5 µM | Kd [2]: > 21 µM

B2: RPTPσ Ig1–3 (species not stated; Supplementary Figs 5a and 8i) (domain or fragment)
chain: EEPPRFIKEPKDQIGVSGGVASFVCQATGDPKPRVTWNKKGKKVNSQRFETIEFDESAGAVLRIQPLRTPRDENVYECVAQNSVGEITVHAKLTVLREDQLPSGFPNIDMGPQLKVVERTRTATMLCAASGNPDPEITWFKDFLPVDPSASNGRIKQLRSGALQIESSEETDQGKYECVATNSAGVRYSSPANLYVRVRRVAPRFSILPMSHEIMPGGNVNITCVAVGSPMPYVKWMQGAEDLTPEDDMPVGRNVLELTDVKDSANYTCVAMSSLGVIEAVAQITVKSLPKA
Kd [3]: 0.551 µM | Kd [4]: 0.58 µM

B3: human RPTPδ sEcto (domain or fragment)
chain: ETPPRFTRTPVDQTGVSGGVASFICQATGDPRPKIVWNKKGKKVSNQRFEVIEFDDGSGSVLRIQPLRTPRDEAIYECVASNNVGEISVSTRLTVLREDQIPRGFPTIDMGPQLKVVERTRTATMLCAASGNPDPEITWFKDFLPVDTSNNNGRIKQLRSESIGGTPIRGALQIEQSEESDQGKYECVATNSAGTRYSAPANLYVRELREVRRVPPRFSIPPTNHEIMPGGSVNITCVAVGSPMPYVKWMLGAEDLTPEDDMPIGRNVLELNDVRQSANYTCVAMSTLGVIEAIAQITVKALPKPPGTPVVTESTATSITLTWDSGNPEPVSYYIIQHKPKNSEELYKEIDGVATTRYSVAGLSPYSDYEFRVVAVNNIGRGPPSEPVLTQTSEQAPSSAPRDVQARMLSSTTILVQWKEPEEPNGQIQGYRVYYTMDPTQHVNNWMKHNVADSQITTIGNLVPQKTYSVKVLAFTSIGDGPLSSDIQVITQTGVPGQPLNFKAEPESETSILLSWTPPRSDTIANYELVYKDGEHGEEQRITIEPGTSYRLQGLKPNSLYYFRLAARSPQGLGASTAEISARTMQSKPSAPPQDISCTSPSSTSILVSWQPPPVEKQNGIITEYSIKYTAVDGEDDKPHEILGIPSDTTKYLLEQLEKWTEYRITVTAHTDVGPGPESLSVLIRTNEDVPSGPPRKVEVEAVNSTSVKVSWRSPVPNKQHGQIRGYQVHYVRMENGEPKGQPMLKDVMLADAQWEFDDTTEHDMIISGLQPETSYSLTVTAYTTKGDGARSKPKLVSTTGAVPGKPRLVINH
Kd [5]: > 22 µM

B6: human RPTPσ Ig1-FN3 (domain or fragment)
chain: EEPPRFIKEPKDQIGVSGGVASFVCQATGDPKPRVTWNKKGKKVNSQRFETIEFDESAGAVLRIQPLRTPRDENVYECVAQNSVGEITVHAKLTVLREDQLPSGFPNIDMGPQLKVVERTRTATMLCAASGNPDPEITWFKDFLPVDPSASNGRIKQLRSGALQIESSEETDQGKYECVATNSAGVRYSSPANLYVRVRRVAPRFSILPMSHEIMPGGNVNITCVAVGSPMPYVKWMQGAEDLTPEDDMPVGRNVLELTDVKDSANYTCVAMSSLGVIEAVAQITVKSLPKAPGTPMVTENTATSITITWDSGNPDPVSYYVIEYKSKSQDGPYQIKEDITTTRYSIGGLSPNSEYEIWVSAVNSIGQGPPSESVVTRTGEQAPASAPRNVQARMLSATTMIVQWEEPVEPNGLIRGYRVYYTMEPEHPVGNWQKHNVDDSLLTTVGSLLEDETYTVRVLAFTSVGDGPLSDPIQVKTQQGVPGQPMNLRAEARSETSITLSWSPPRQESIIKYELLFREGDHGREVGRTFDPTTSYVVEDLKPNTEYAFRLAARSPQGLGAFTPVVRQRTL
Kd [8]: 0.278 µM | Kd (mouse TrkC LRRIg2): 0.202 µM | Kd [9]: 0.468 µM | stoichiometry N [10]: 1
